Experimental data reported in the supplement of paper PMC10201428.
± gives the standard deviation of the averaged measurements.

Key:
[1] = tested on: VchCAST RNA-guided transposition machinery (E. coli BL21(DE3) host, lacZ target); assay: relative integration efficiency (T-LR orientation) vs wild-type transposon end (log2 (normalized fold change)); transposon end mutated: left end; higher = more efficient transposition
Outline: (§1)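 Barcode abundances in input plasmids and in genomic integration junctions were obtained by PCR amplification and Illumina sequencing. These came from E. coli BL21(DE3) co-transformed with a T7-driven effector plasmid and a pUC57 donor carrying 1549 left-end or 1849 right-end transposon variants, then plated with 0.1 mM IPTG at 37°C for 18 h. Relative integration efficiency is the output/input fold change, normalised to reference barcodes and log-transformed.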

[2] = tested on: VchCAST RNA-guided transposition machinery (E. coli BL21(DE3) host, lacZ target); assay: relative integration efficiency (T-RL orientation) vs wild-type transposon end (log2 (normalized fold change)); transposon end mutated: left end; higher = more efficient transposition
Outline: as §1

Sequence | relative integration efficiency (log2) [1] | relative integration efficiency (log2) [2]
AATGTTGTTGATGCAACCATAACTGTCGCGGGCCGCCGGCGGGCGCCGACTACCAGGCCAACACCCCACCAACGCGCGGTCGCGAGACACCCCACCAACGCCTGGTCGCGGGGGTGTCCGATCTGATTTCAGCAAAACTACTGCAGTAAGAA | < -10 | < -10
AATGTTGTTGATGCAACCATAAAGTGATATTTAACAACCATATATTGATATCTCTAATTATTTATAATCAGCAACTTAACCACAAAAACAAAACAACCATAAGTTGATATTTTTGTGAATCGAGTATTTCAGCAAAACTACTGCAGTAAGAA | -0.167 ± 0.77 | -2.13 ± 0.82
AATGTTGTTGATGCAACCAGCCCTGTCGCGGGCCGCCGGCGGGCGCCGACTACCAGGCCAACACCCCACCAACGCGCGGTCGCGAGACACCCCACCAACGCCTGGTCGCGGGGGTGTCCGATCTGATTTCAGCAAAACTACTGCAGTAAGAA | -9 ± 0.31 | < -10
AATGTTGTTGATGTGTTGCAACCATAAAGTGATATTTAATAATTATTTATAATCAGCAACTTAACCACAAAACAACCATATATTGATATCTCACAAAACAACCATAAGTTGATATTTTTGTGAATCGAGTATTTCAGCAAAACTACTGCAGT | < -10 | -6.86 ± 1.7
AATGTTGTTGATGCAACCATAAAGTGATATTTAATAACTTCGTATAATGTATACTATACGAAGTTATCAACCATATATTGATATCTCACAAAACAACCATAAGTTGATATTTTTGTGAATCGAGTATTTCAGCAAAACTACTGCAGTAAGAA | -2.57 ± 2.1 | -3.05 ± 1.2
AATGTTGTTGATGCAACCATAAAGTGATATTTAAGTACTGCGCGTCTGAAGTCATCTTTAAACCGAACAACCATATATTGATATCTCACAAAACAACCATAAGTTGATATTTTTGTGAATCGAGTATTTCAGCAAAACTACTGCAGTAAGAA | -3.06 ± 1.1 | -3.55 ± 0.95
AATGTTGTTGATGCACCCATAAATTGATATTGCATAATTATTTATAATCAGCAACTTAACCACAAAACACCCATAAATTGATAATTAACAAAAGTTGGTATTCAACTATAAAATGTGAATCGAGTATTTCAGCAAAACTACTGCAGTAAGAA | -1.55 ± 1.2 | -3.57 ± 1.4
AATGTTGTTGATGCAACCATAAAGTGATATTTAATAATTATTTATAATCAGCAACTTAACCACAAAACAACCATATATTGAGCGAGACACCCCACCAACGCCTGGTCGCGGGGGTGTCCGATCTGATTTCAGCAAAACTACTGCAGTAAGAA | -2.37 ± 1.7 | -4.19 ± 1.3
AATGTTGTTGATGCAACCATAAAGTGATATTTAATAATTATTTATAATCAGCAACTTAACCACAAAACAACCATATATTGATATCTCACAAAACAACCATAAGTTGATATTTTGTGAATCGAGTATTTCAGCAAAACTACTGCAGTAAGAAA | 0.169 ± 0.12 | 0.0855 ± 0.0046
AATGTTGTTGATGCAACCATAAAGTGATATTTAATAATTATTTCAACCATATATTGATATCTCACAAAACAACCATAAGTTGATATTTTTGTGAATCGAGTATTTCAGCAAAACTACTGCAGTAAGAAAGTTACTTCGTGGTATGGGAGGAT | -3.12 ± 1.5 | -6.94 ± 1.9
AATGTTGTTGATGCAACCATAAAGTGATATTTAACAACCATATATTGATATCTCACAAAACAACCATAAGTTGATATTTTTGTGAATCGAGTATTTCAGCAAAACTACTGCAGTAAGAAAGTTACTTCGTGGTATGGGAGGATCAAGGAGCC | -0.0605 ± 1 | -2.74 ± 1
AATGTTGTTGATGCAACCATAAAGTGATATTTAATAATCAACCATATATTGATATCTCACAAAACAACCATAAGTTGATATTTTTGTGAATCGAGTATTTCAGCAAAACTACTGCAGTAAGAAAGTTACTTCGTGGTATGGGAGGATCAAGG | < -10 | -7.79 ± 2.1
AATGTTGTTGATGTGTTCAACCATAAAGTGATATTTAATAATTATTTATAATCAGCAACTTAACCACAAAACAACCATATATTGATATCTCACAAAACAACCATAAGTTGATATTTTTGTGAATCGAGTATTTCAGCAAAACTACTGCAGTA | < -10 | -6.33 ± 0.89
AATGTTGTTGATGCAACCATAAAGTGATATTTAATAATTATTTATAATCAGCAACTTAACCACAAAACAACCATATATTGATATCTCACAAAACAACCATAAGTTGATAGGGGGTGTCCGATCTGATTTCAGCAAAACTACTGCAGTAAGAA | -0.256 ± 0.057 | -0.795 ± 0.62
AATGTTGTTGATGCAACCATAAAGTGATATTTAATAATTATTTATAATCAGCAACTTCAACCATATATTGATATCTCAACCACAAAAACAAAACAACCATAAGTTGATATTTTTGTGAATCGAGTATTTCAGCAAAACTACTGCAGTAAGAA | -2.92 ± 1.7 | -2.25 ± 0.7
AATGTTGTTGATGCAACCATAAAGTGATATTTAATAACAACCATATATTGATATCTCTTATTTATAATCAGCAACTTAACCACAAAAACAAAACAACCATAAGTTGATATTTTTGTGAATCGAGTATTTCAGCAAAACTACTGCAGTAAGAA | -2.07 ± 1.8 | -3.58 ± 1
AATGTTGTTGATGCAACCATAAAGTGATATTTAATAATTATTTACAACCATATATTGATATCTCACAAAACAACCATAAGTTGATATTTTTGTGAATCGAGTATTTCAGCAAAACTACTGCAGTAAGAAAGTTACTTCGTGGTATGGGAGGA | -1.76 ± 1 | -5.81 ± 1.1
AATGTTGTTGATGCAACCATAAAGTGATATTTAATAATTATTTATAATCAGCAACTTAACCACAAAACAACCATATATTGATATCTCACAAAACAACCATAAGTTGATATTTGTGAATCGAGTATTTCAGCAAAACTACTGCAGTAAGAAAG | 0.0663 ± 0.15 | -0.116 ± 0.072
AATGTTGTTGATGCAACCATAAAGTGATATTTAATAATTATTTATAATCAGCCAACCATATATTGATATCTCACAAAACAACCATAAGTTGATATTTTTGTGAATCGAGTATTTCAGCAAAACTACTGCAGTAAGAAAGTTACTTCGTGGTA | -4.33 ± 0.31 | -7.71 ± 0.64
AATGTTGTTGATGCAACCATAAAGTGATATTTAATAATTATTTATAATCAGCAACTTAACCACAAAATGTGAATCGAGTATTCAACCATATATTGATATCTCACAAAACAACCATAAGTTGATATTTTTCAGCAAAACTACTGCAGTAAGAA | -2.89 ± 0.26 | -4 ± 1.4
AATGTTGTTGATGCAACCATAAAGTGATATTTAATAATTATTTATAATCAGCAACTTAACCACAAAACAACCATATATTGATATCTCACACCCACCAACGCCTGGTCGCGGGGGTGTCCGATCTGATTTCAGCAAAACTACTGCAGTAAGAA | -1.23 ± 1.7 | -2.48 ± 0.87
AATGTTGTTGATGCAACCATAAAGTGATATTTGCTAGCACTATACCTAGGACTGAGCTAGCCGTCAACAACCATATATTGATATCTCACAAAACAACCATAAGTTGATATTTTTGTGAATCGAGTATTTCAGCAAAACTACTGCAGTAAGAA | < -10 | -5.87 ± 1
AATGTTGTTGACAACCATAAAGTGATATTTAATAATTATTTATAATCAGCAACTTAACCACAAAACAACCATATATTGATATCTCACAAAACAACCATAAGTTGATATTTTTGTGAATCGAGTATTTCAGCAAAACTACTGCAGTAAGAAAG | -5.1 ± 0.69 | -1.33 ± 0.66
AATGTTGTTGATGCAACCATAAAGTGATATTTAATAATTATTTATAATCAGCAACTTAACCACAAAATGTGAATCGACAACCATATATTGATATCTCACAAAACAACCATAAGTTGATATTTTGTATTTCAGCAAAACTACTGCAGTAAGAA | -3.12 ± 0.12 | -2.45 ± 0.87
